No end group written: not given here.
target: T1, HLA-A*02:01 (peptide-receptive MHC class I monomer after UV cleavage of the UV-sensitive ligand) (human); assay: UV ligand-exchange ELISA; exchange yield grade (+ >=10%, ++ >=20%, +++ >=50%, ++++ >=75%)
T1 construct: MHC monomers loaded by UV-ligand exchange and captured on streptavidin plates
Text: Candidate peptides for T cell based therapies according to the present invention were further tested for their MHC binding capacity (affinity). The individual peptide-MHC complexes were produced by UV-ligand exchange, where a UV-sensitive peptide is cleaved upon UV-irradiation, and exchanged with the peptide of interest as analyzed. Only peptide candidates that can effectively bind and stabilize the peptide-receptive MHC molecules prevent dissociation of the MHC complexes. To determine the yield of the exchange reaction, an ELISA was performed based on the detection of the light chain (β2m) of stabilized MHC complexes. The assay was performed as generally described in Rodenko et al. (Rodenko et al., 2006).
96 well MAXISorp plates (NUNC) were coated over night with 2 ug/ml streptavidin in PBS at room temperature, washed 4× and blocked for 1 h at 37° C. in 2% BSA containing blocking buffer. Refolded HLA-A*02:01/MLA-001 monomers served as standards, covering the range of 15-500 ng/ml. Peptide-MHC monomers of the UV-exchange reaction were diluted 100 fold in blocking buffer. Samples were incubated for 1 h at 37° C., washed four times, incubated with 2 ug/ml HRP conjugated anti-β2m for 1 h at 37° C., washed again and detected with TMB solution that is stopped with […]. Absorption was measured at 450 nm. Candidate peptides that show a high exchange yield (preferably higher than 50%, most preferred higher than 75%) are generally preferred for a generation and production of antibodies or fragments thereof, and/or T cell receptors or fragments thereof, as they show sufficient avidity to the MHC molecules and prevent dissociation of the MHC complexes.

IIAEYLSYV [IIAEYLSYV (SEQ ID NO: 228)] and NLQRTVVTV [NLQRTVVTV (SEQ ID NO: 234)] fall in the same range of peptide exchange yield: 20 to 50% for the first, 20 to 50% for the second.

TVLDGLEFKV [TVLDGLEFKV (SEQ ID NO: 259)] and YQYGAVVTL [YQYGAVVTL (SEQ ID NO: 238)] cannot be ordered by peptide exchange yield: no less than 75% for the first, 50 to 75% for the second.

Compared with FIPDFIPAV [FIPDFIPAV (SEQ ID NO: 241)], AQFGAVLEV [AQFGAVLEV (SEQ ID NO: 217)] is higher in peptide exchange yield: 20 to 50% for the first, 50 to 75% for the second.

Compared with FLYSETWNI [FLYSETWNI (SEQ ID NO: 254)], QLFEEEIEL [QLFEEEIEL (SEQ ID NO: 215)] is lower in peptide exchange yield: no less than 75% for the first, 20 to 50% for the second.

YSDDDVPSV [YSDDDVPSV (SEQ ID NO: 253)] and AVLGFSFRL [AVLGFSFRL (SEQ ID NO: 24)] cannot be ordered by peptide exchange yield: no less than 75% for the first, 50 to 75% for the second.

GMWNPNAPVFL [GMWNPNAPVFL (SEQ ID NO: 255)] and RIYPFLLMV [RIYPFLLMV (SEQ ID NO: 258)] cannot be ordered by peptide exchange yield: no less than 75% for the first, 50 to 75% for the second.

Compared with ALQETPPQV [ALQETPPQV (SEQ ID NO: 256)], FLAEAPTAL [FLAEAPTAL (SEQ ID NO: 220)] is lower in peptide exchange yield: 50 to 75% for the first, 20 to 50% for the second.

First: IMDDDSYGV [IMDDDSYGV (SEQ ID NO: 230)]
Second: YLDRLIPQA [YLDRLIPQA (SEQ ID NO: 237)]
The peptide exchange yield of the first is lower: 20 to 50% for the first, 50 to 75% for the second.

SLFDGFFLTA [SLFDGFFLTA (SEQ ID NO: 236)] and FLIETGTLL [FLIETGTLL (SEQ ID NO: 222)] cannot be ordered by peptide exchange yield: no less than 75% for the first, 50 to 75% for the second.

First: NLLEQFILL [NLLEQFILL (SEQ ID NO: 248)]
Second: YINEDEYEV [YINEDEYEV (SEQ ID NO: 213)]
The peptide exchange yield of the first is higher: 50 to 75% for the first, 20 to 50% for the second.

ILEPFLPAV [ILEPFLPAV (SEQ ID NO: 244)] and ALDQFLEGI [ALDQFLEGI (SEQ ID NO: 218)] fall in the same range of peptide exchange yield: 50 to 75% for the first, 50 to 75% for the second.

MLEVHIPSV [MLEVHIPSV (SEQ ID NO: 233)] and ALVEDIINL [ALVEDIINL (SEQ ID NO: 23)] cannot be ordered by peptide exchange yield: 50 to 75% for the first, no less than 75% for the second.

FLPETRIMTSV [FLPETRIMTSV (SEQ ID NO: 261)] and YLGDLIMAL [YLGDLIMAL (SEQ ID NO: 252)] cannot be ordered by peptide exchange yield: no less than 75% for the first, 50 to 75% for the second.

KVLEMETTV [KVLEMETTV (SEQ ID NO: 247)] and VLLESLVEI [VLLESLVEI (SEQ ID NO: 249)] cannot be ordered by peptide exchange yield: 50 to 75% for the first, no less than 75% for the second.

FLIGQGAHV [FLIGQGAHV (SEQ ID NO: 212)] and KLPVPLESV [KLPVPLESV (SEQ ID NO: 246)] fall in the same range of peptide exchange yield: 50 to 75% for the first, 50 to 75% for the second.

Compared with ALLELENSV [ALLELENSV (SEQ ID NO: 219)], ILSPWGAEV [ILSPWGAEV (SEQ ID NO: 229)] is higher in peptide exchange yield: 20 to 50% for the first, no less than 75% for the second.

First: FLDTSNQHLL [FLDTSNQHLL (SEQ ID NO: 25)]
Second: IIAEGIPEA [IIAEGIPEA (SEQ ID NO: 227)]
The peptide exchange yield of the first is higher: 50 to 75% for the first, 20 to 50% for the second.

KVVSNLPAI [KVVSNLPAI (SEQ ID NO: 216)] and KVMEGTVAA [KVMEGTVAA (SEQ ID NO: 232)] fall in the same range of peptide exchange yield: 20 to 50% for the first, 20 to 50% for the second.

KLIQLPVVYV [KLIQLPVVYV (SEQ ID NO: 245)] and VLTNVGAAL [VLTNVGAAL (SEQ ID NO: 250)] fall in the same range of peptide exchange yield: 50 to 75% for the first, 50 to 75% for the second.

IVMGAIPSV [IVMGAIPSV (SEQ ID NO: 231)] and VLIDDTVLL [VLIDDTVLL (SEQ ID NO: 239)] fall in the same range of peptide exchange yield: 50 to 75% for the first, 50 to 75% for the second.

First: GVIDPVPEV [GVIDPVPEV (SEQ ID NO: 226)]
Second: GILDFXVFL (not fully specified) [GILDFZVFL (SEQ ID NO: 242)]
The peptide exchange yield of the first is lower: 20 to 50% for the first, no less than 75% for the second.

ALKKHLTSV [ALKKHLTSV (SEQ ID NO: 22)] and GLPDLDIYL [GLPDLDIYL (SEQ ID NO: 243)] cannot be ordered by peptide exchange yield: 50 to 75% for the first, no less than 75% for the second.

First: VLYELFTYI [VLYELFTYI (SEQ ID NO: 251)]
Second: FLQDIPDGLFL [FLQDIPDGLFL (SEQ ID NO: 223)]
The peptide exchange yield of the first is higher: 50 to 75% for the first, 20 to 50% for the second.

FLAPDNSLLLA [FLAPDNSLLLA (SEQ ID NO: 221)] and RLDEAFDFV [RLDEAFDFV (SEQ ID NO: 260)] cannot be ordered by peptide exchange yield: no less than 75% for the first, no less than 75% for the second.

First: FLSPLLPLL [FLSPLLPLL (SEQ ID NO: 224)]
Second: ALVPTPALFYL [ALVPTPALFYL (SEQ ID NO: 240)]
The peptide exchange yield of the first is lower: 20 to 50% for the first, 50 to 75% for the second.

FLGSFIDHV [FLGSFIDHV (SEQ ID NO: 26)] and SLDVYELFL [SLDVYELFL (SEQ ID NO: 235)] fall in the same range of peptide exchange yield: 50 to 75% for the first, 50 to 75% for the second.

FLQEWEVYA [FLQEWEVYA (SEQ ID NO: 257)] and FLFDGSMSL [FLFDGSMSL (SEQ ID NO: 214)] cannot be ordered by peptide exchange yield: no less than 75% for the first, 50 to 75% for the second.
